In the supplement of paper PMC9732359:
± gives the uncertainty stated by the source.

Assay: protein stability index of a GFP-peptide fusion (yeast GPS) (PSI 1-4); higher = more stable; sorted into four equal gates, so the index is relative within each strain
Method in brief: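 The protein stability index of a peptide was calculated by multiplying its read frequency in each gate by that gate's number and adding the products. The peptides were tiled 17-residue stretches of yeast proteins, fused downstream of GFP on a Cherry-expressing plasmid and carried in yeast as a pooled library. Mid-log cultures in leucine-free medium were sorted into four equal gates by GFP/Cherry ratio, and each gate's plasmids were PCR-amplified and Illumina-sequenced.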

| Sequence | protein stability index (doa10∆) | protein stability index (pdr5∆) | protein stability index (san1∆) | protein stability index (ubr1∆) |
| --- | --- | --- | --- | --- |
| KLKQLLDESSEQKNTAK [YIL149C/MLP2] | 3.02 ± 0.11 | 3.22 ± 0.11 | 2.6 ± 0.17 | 2.99 ± 0.065 |
| KKNVWRSINNLIQEHDS [BRN1] | 3.16 ± 0.1 | 2.75 ± 0.075 | 2.63 ± 0.052 | 2.57 ± 0.041 |
| VSLVAEATSNTNSEDKL [MED4] | 2.84 ± 0.12 | 3.03 ± 0.078 | 2.84 ± 0.082 | 2.65 ± 0.1 |
| LTNQLYKNHELLKLERK [SNF2] | 3.15 ± 0.063 | 3.12 ± 0.059 | 3.11 ± 0.039 | 3.2 ± 0.053 |
| FTITVARKYLQTRWGLP [FAS2] | 1.44 ± 0.092 | 1.29 ± 0.1 | 1.36 ± 0.21 | 1.96 ± 0.29 |
| RMRFPPFDDDEPPLSYE [PRP8] | 2.63 ± 0.047 | 3.06 ± 0.051 | 2.95 ± 0.035 | 2.61 ± 0.034 |
| NGMFCQVPSSLIVRAKN [RRP4] | 2.07 ± 0.064 | 2.5 ± 0.12 | 2.31 ± 0.092 | 2.27 ± 0.082 |
| DYNFKYGIPLEFYNEMH [PRP8] | 2.98 ± 0.08 | 3.08 ± 0.091 | 1.78 ± 0.082 | 3.15 ± 0.083 |
| IVLIKGISSAYIKSATL [SNU114] | 1.92 ± 0.087 | 2.05 ± 0.069 | 2.5 ± 0.07 | 2.52 ± 0.064 |
| GLELSNFKSYRGVTKVG [SMC1] | 3.04 ± 0.094 | 3.09 ± 0.14 | 2.55 ± 0.15 | 2.45 ± 0.12 |
| SDKQRRLLAKDAMIAQR [DIS3] | 2.29 ± 0.056 | 2.48 ± 0.049 | 2.36 ± 0.064 | 2.46 ± 0.049 |
| LNTKSIQIDEETENSES [MCD1] | 2.16 ± 0.096 | 2.52 ± 0.11 | 2.87 ± 0.1 | 2.92 ± 0.1 |
| NNTHVGRQFCNRLSRIH [YLR018C/POM34] | 2.34 ± 0.12 | 2.69 ± 0.17 | 2.3 ± 0.23 | 1.95 ± 0.089 |
| FREWQYFKLSITSFDQD [POP8] | 1.94 ± 0.052 | 2.53 ± 0.06 | 2.52 ± 0.061 | 2.51 ± 0.045 |
| IRAQNFKSALANLEDII [RRP6] | 1.89 ± 0.06 | 1.75 ± 0.062 | 2.29 ± 0.091 | 1.41 ± 0.047 |
| HKSIELISNLLFSKNRN [YCS4] | 2.25 ± 0.055 | 2.47 ± 0.047 | 2.52 ± 0.046 | 2.41 ± 0.05 |
| KKIREIYRYDEMSNKVL [BRR2] | 2.92 ± 0.097 | 3.06 ± 0.13 | 2.62 ± 0.086 | 3.08 ± 0.045 |
| DFGFDLDIEKEAPAGNI [MCD1] | 2.76 ± 0.26 | – | – | 3.3 ± 0.15 |
| QGNYPTTSYIKEQENIT [DPB4] | 3 ± 0.06 | 3.1 ± 0.06 | 3.02 ± 0.041 | 3.18 ± 0.075 |
| IKAFMDSTIGNSKVDMK [IRR1] | 2.57 ± 0.27 | 2.45 ± 0.16 | – | 2.05 ± 0.19 |
| PPGTGKTLCARAVANRT [RPT1] | 1.26 ± 0.1 | 1.25 ± 0.19 | 1.37 ± 0.18 | 1.27 ± 0.12 |
| RHSNALVDILPPDSDSS [RPT3] | 2.51 ± 0.076 | 2.65 ± 0.067 | 2.69 ± 0.062 | 2.47 ± 0.056 |
| DLKSKGLIPADATFAGH [FAS1] | 3.04 ± 0.092 | 3.01 ± 0.074 | 3.07 ± 0.12 | 2.98 ± 0.065 |
| VKEEKEDMETQASDPSK [RPC53] | 3.27 ± 0.14 | 3.41 ± 0.2 | 3.2 ± 0.17 | 3.31 ± 0.15 |
| NNQSKEKADYEDEMMHE [RPN12] | 2.63 ± 0.074 | 2.7 ± 0.06 | 2.67 ± 0.095 | 2.53 ± 0.052 |
| IRIFRSELQRLSHENNV [RPT5] | 2.67 ± 0.11 | 3.21 ± 0.088 | 2.96 ± 0.052 | 2.9 ± 0.091 |
| NFYIQYDPKDGLYKMME [AAR2] | – | 2.21 ± 0.14 | – | – |
